The results in this text go back to patent US20220298244A1 (BEIJING MABWORKS BIOTECH, published 2022).

The term EC50 denotes the midpoint of the concentration-response curve. By Kd is commonly meant the constant that tells how readily two partners part at equilibrium.

B1: 56E5VH2VL4 (antibody, human IgG1, kappa, N297A, V domains shown)
VH: QVQLQESGPGLVKPSQTLSLTCTVSGGSITSDYWNWIRQHPGKGLEYMGYISYTGSTYYNPSLKSRVTITVDTSKNQFSLKLSSVTTADTAVYYCARYRDWDVRAMDYWGQGTTVTVSS
VL: DIVMTQSPDSLAVSLGEKVTMNCKSSQSLLISGNQKNFLTWYQQKPGQPPKLLIYWASTRESGVPDRFSGSGSGTDFTLTISSLQAEDLAVYYCQNDFGFPFTFGQGTKVEIKR
notes: humanized 56E5 antibody
B2: 56E5VH4VL4 (antibody, human IgG1, kappa, N297A, V domains shown)
VH: B1 VH with K43N, G44K, V71R
VL: B1 VL
notes: humanized 56E5 antibody
B3: 56E5VH3VL4 (antibody, human IgG1, kappa, N297A, V domains shown)
VH: B1 VH with K43N, G44K
VL: B1 VL
notes: humanized 56E5 antibody
B4: mouse anti-PD-L1 monoclonal antibody 3C2 (antibody, mouse IgG1, V domains shown)
VH: QVQLNQSGPELMKAGTSVKISCKASGYSFTDYHVNWVKQRPGQGLEWIGWIFPGSGRTFYTDKFKGKATLTVDLSFTTAYIMLNSLTSEDSAVYFCATDYGTSGYGLVYWGQGTSVTVSS
VL: DIQMTQSSSYLSVSLGGRVTISCKASDRINNWLAWYQQKPGNAPRLLISGATSLETGVPSRFSGSGSGKDYTLSITSLQTEDVAVYYCQQYWNIPFTFGSGTKLEIK
notes: Purified from hybridoma; also called Mouse 3C2
B5: 3C2VH3VL3 (antibody, human IgG1, kappa, N297A, V domains shown)
VH: QVQLVQSGAEVKKPGASVKVSCKASGYTFTDYHVNWVKQRPGQGLEWIGWIFPGSGRTFYTDKFKGRVTLTVDTSTSTVYMELSSLTSEDTAVYYCATDYGTSGYGLVYWGQGTTVTVSS
VL: DIQMTQSPSSLSASVGDRVTISCKASDRINNWLAWYQQKPGNAPRLLISGATSLETGVPSRFSGSGSGTDYTFTISSLQPEDIATYYCQQYWNIPFTFGQGTKVEIKR
notes: humanized 3C2 antibody
B6: 3C2VH2VL2 (antibody, human IgG1, kappa, N297A, V domains shown)
VH: B5 VH with K38R, R40A
VL: B5 VL with S22T, N42K
notes: humanized 3C2 antibody
B7: 3C2VH3VL2 (antibody, human IgG1, kappa, N297A, V domains shown)
VH: B5 VH
VL: B5 VL with S22T, N42K
notes: humanized 3C2 antibody
B8: humanized antibody 3C2-VH4VL4 (antibody, human IgG1, kappa, N297A, V domains shown)
VH: B5 VH with T28S, Y95F
VL: B5 VL with T85V
notes: Human IgG1(N297A)/kappa
B9: 3C2VH3VL4 (antibody, human IgG1, kappa, N297A, V domains shown)
VH: B5 VH
VL: B5 VL with T85V
notes: humanized 3C2 antibody
B10: 3C2VH5VL4 (antibody, human IgG1, kappa, N297A, V domains shown)
VH: B5 VH with T28S, R67K, V68A, Y95F
VL: B5 VL with T85V
notes: humanized 3C2 antibody
B11: 3C2VH2VL4 (antibody, human IgG1, kappa, N297A, V domains shown)
VH: B5 VH with K38R, R40A
VL: B5 VL with T85V
notes: humanized 3C2 antibody
B12: 3C2VH4VL3 (antibody, human IgG1, kappa, N297A, V domains shown)
VH: B5 VH with T28S, Y95F
VL: B5 VL
notes: humanized 3C2 antibody
B13: 3C2VH4VL2 (antibody, human IgG1, kappa, N297A, V domains shown)
VH: B5 VH with T28S, Y95F
VL: B5 VL with S22T, N42K
notes: humanized 3C2 antibody
B14: 3C2VH5VL2 (antibody, human IgG1, kappa, N297A, V domains shown)
VH: B5 VH with T28S, R67K, V68A, Y95F
VL: B5 VL with S22T, N42K
notes: humanized 3C2 antibody
B15: 3C2VH2VL3 (antibody, human IgG1, kappa, N297A, V domains shown)
VH: B5 VH with K38R, R40A
VL: B5 VL
notes: humanized 3C2 antibody
B16: humanized antibody 3C2-VH6VL5 (antibody, human IgG1, kappa, N297A, V domains shown)
VH: B5 VH with K38R, R40A, L70M, T87R
VL: B5 VL with S22T, N42K, R45K, Y71F, F73L
notes: Human IgG1(N297A)/kappa
B17: 3C2VH5VL3 (antibody, human IgG1, kappa, N297A, V domains shown)
VH: B5 VH with T28S, R67K, V68A, Y95F
VL: B5 VL
notes: humanized 3C2 antibody
B18: humanized antibody 56E5-VH5VL4 (antibody, human IgG1, kappa, N297A, V domains shown)
VH: B1 VH with K43N, G44K, V67I, T68S, V71R
VL: B1 VL
notes: Human IgG1(N297A)/kappa

Positions count from the first letter of the chain named. Numbers in names are those of the source.

T1 sequence (Q9NZQ7 19-290 limits assumed): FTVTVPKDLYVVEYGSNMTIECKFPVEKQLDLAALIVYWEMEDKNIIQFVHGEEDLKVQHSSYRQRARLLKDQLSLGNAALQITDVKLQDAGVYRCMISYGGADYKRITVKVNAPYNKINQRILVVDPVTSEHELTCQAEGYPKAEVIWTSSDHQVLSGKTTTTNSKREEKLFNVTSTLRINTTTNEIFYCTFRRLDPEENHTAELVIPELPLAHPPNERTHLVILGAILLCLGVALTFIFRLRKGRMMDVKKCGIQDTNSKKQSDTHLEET
T4 sequence (Q9EP73 19-290 limits assumed): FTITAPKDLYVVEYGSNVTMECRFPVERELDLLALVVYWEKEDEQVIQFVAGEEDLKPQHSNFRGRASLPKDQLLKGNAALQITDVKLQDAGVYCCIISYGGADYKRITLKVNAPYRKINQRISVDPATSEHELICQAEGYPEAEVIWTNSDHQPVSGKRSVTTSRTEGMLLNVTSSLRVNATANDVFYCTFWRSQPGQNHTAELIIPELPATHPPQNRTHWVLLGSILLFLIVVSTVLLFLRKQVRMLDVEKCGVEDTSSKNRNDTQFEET

One assay has as its target T1, human PD-L1 expressed on HEK293A cells (human, UniProt Q9NZQ7 19-290).
T1 construct: Full-length cDNA expressed stably; also called HEK293A/human PD-L1 cells; HEK293A/human PD-L1
In words: FACS on cells, serially diluted antibody (protocol of Example 4); legend paragraph 38 gives panel A as HEK293A/human PD-L1 cells, but the title printed on the sheet reads HEK293A/monkey PDL1.
For B1, the binding result is “binds”.

Turning to B2, the binding result was “binds”.

As to B3, the binding result is “binds”.

The target in another assay is T2, monkey PD-L1 expressed on HEK293A cells (monkey (cynomolgus), UniProt Q9NZQ7 19-290 (human entry)).
T2 construct: Full-length cDNA expressed stably; also called HEK293A/monkey PD-L1 cells; HEK293A/monkey PD-L1
T2 sequence (Q9NZQ7 other isoform, or with tags, fused parts or gaps limits assumed): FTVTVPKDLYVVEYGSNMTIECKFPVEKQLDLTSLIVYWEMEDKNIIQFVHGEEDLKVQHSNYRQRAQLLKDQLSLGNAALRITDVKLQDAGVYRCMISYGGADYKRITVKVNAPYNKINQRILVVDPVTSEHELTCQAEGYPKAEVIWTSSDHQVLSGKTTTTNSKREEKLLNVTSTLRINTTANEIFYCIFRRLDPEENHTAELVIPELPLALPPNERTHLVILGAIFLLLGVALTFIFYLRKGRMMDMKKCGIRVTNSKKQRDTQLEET
In words: FACS on HEK293A/monkey PD-L1 cells. As for the experimental part: (§1) To determine whether the anti-PD-L1 antibodies bound to human, monkey or mouse PD-L1s expressed on HEK293A cells, a cell-based binding assay was performed by FACS using the HEK293A cells stably overexpressing human, monkey and mouse PD-L1s respectively as generated in Example 1. Briefly, 10⁵ HEK293A cells in 100 μl culture medium were seeded onto each well of the 96-well plates, to which added 50 μl serially diluted anti-PD-L1 antibodies. After incubated at 4° C. for 1 hour, plates were washed 3 times with PBST. Then, APC coupled Goat Anti-Mouse IgG (Cat #:405308, BioLegend, US) diluted 500× was added to the plates. After incubation at 4° C. for 1 hour, the plates were washed with PBS for 3 times and then cell fluorescence was monitored using a FACS machine (BD).
As for B4, the 50% effective concentration (EC50) turned out to be 1.25 nM.

Another assay has as its target T2, monkey PD-L1 expressed on HEK293A cells. In words: FACS on HEK293A/monkey PD-L1 cells, serially diluted antibody (protocol of Example 4).
With B5, the binding result is reported as “binds”.

Regarding B6, the binding result is “binds”.

As to B7, the binding result is “binds”.

Turning to B8, the binding result was “binds”.

With B9, the binding result was “binds”.

B10: the binding result was “binds”.

As to B11, the binding result is “binds”.

As for B12, the binding result is “binds”.

Turning to B13, the binding result is listed as “binds”.

Regarding B14, the binding result is given as “binds”.

Regarding B15, the binding result is listed as “binds”.

Turning to B16, the binding result is on record as “binds”.

On to B17, for which the binding result is given as “binds”.

The target in another assay is T1, human PD-L1 expressed on HEK293A cells. In words: FACS on HEK293A/human PD-L1 cells. As for the experimental part: as §1
As to B4, the EC50 is 1.75 nM.

The target is the same in a further assay. In words: FACS blocking assay: antibody titrated on HEK293A/human PD-L1 cells, then PD1-hFc (200 µg/ml) detected. How it is done:
Briefly, 10⁵ HEK293A/human PD-L1 cells in 100 μl culture medium were seeded onto each well of 96-well plates, to which added 50 μl serially diluted anti-PD-L1 antibodies. After incubated at 4° C. for 1 hour, the plates were washed 3 times with PBST. […] After incubation at 4° C. for 1 hour, the plates were washed with PBST for 3 times, and added with PE coupled Goat Anti-human IgG (Cat #:PAI-86078, Thermofisher, US) diluted 500×. After incubation at 4° C. for 1 hour, the plates were washed with PBST for 3 times and then cell fluorescence was monitored using a FACS machine (BD).
B4: the EC50 came to 0.0147 nM.

The target in another assay is T3, monkey PD-L1 (ECD)-his (monkey, UniProt Q9NZQ7 19-238 (human entry)).
T3 construct: Bought protein; also called Cat #:90251-C08H, Sino Biological; not shown: His tag
T3 sequence (Q9NZQ7 other isoform, or with tags, fused parts or gaps): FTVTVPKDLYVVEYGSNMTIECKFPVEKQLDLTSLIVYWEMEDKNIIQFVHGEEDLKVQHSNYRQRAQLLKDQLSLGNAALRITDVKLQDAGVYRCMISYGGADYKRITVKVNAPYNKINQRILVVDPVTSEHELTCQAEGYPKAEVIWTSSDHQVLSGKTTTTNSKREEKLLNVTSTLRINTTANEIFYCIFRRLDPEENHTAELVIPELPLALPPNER
In words: SPR (BIAcore 8K), monkey PD-L1 (ECD)-his coupled to CM5 chip, antibody injected, 1:1 Langmuir model. How it is done:
(§2) These antibodies were also tested in SPR assays for their binding affinities to human and monkey PD-L1 with BIAcore™ 8K instrument (GE Life Sciences). Briefly, 100-200 response units (RU) of human PD-L1 (ECD)-his protein (Cat #:10084-H08H, Sino Biological, CN) or monkey PD-L1 (ECD)-his protein (Cat #:90251-008H, Sino Biological, CN) were coupled to CM5 biosensor chips (Cat #:BR-1005-30, GE Life Sciences, US), and the un-reacted groups were blocked with 1M ethanolamine Serially diluted antibodies at concentrations ranging from 0.3 μM to 10 μM were injected into the SPR running buffer (HBS-EP buffer, pH7.4, Cat #:BR-1006-69, GE Life Sciences, US) at 30 μL/minute. The binding affinities were calculated with the RUs of blank controls subtracted. The association rate (kₐ) and dissociation rate (kd) were calculated using the one-to-one Langmuir binding model (BIA Evaluation Software, GE Life Sciences), and the equilibrium dissociation constant KD was calculated as the kd/kₐ ratio.
In general terms: Surface plasmon resonance follows binding to a sensor surface in real time, without labels.
B18 had a dissociation constant Kd of 0.00807 nM.

In the case of B8, binding was characterised by a dissociation constant (Kd) of 0.245 nM.

The molecule B16 gave a dissociation constant (Kd) of 0.369 nM.

The next assay concerns the target T4, mouse PD-L1 expressed on HEK293A cells (mouse, UniProt Q9EP73 19-290).
T4 construct: Full-length cDNA expressed stably; also called HEK293A/mouse PD-L1 cells; HEK293A/mouse PD-L1
In words: FACS on HEK293A/mouse PD-L1 cells. How it is done: as §1
With B4, the binding result is listed as “no binding”.

In a further assay the target is T2, monkey PD-L1 expressed on HEK293A cells. In words: FACS on HEK293A/monkey PD-L1 cells, serially diluted antibody (protocol of Example 4). The source holds these as a separate data set.
As to B1, the binding result is given as “binds”.

As for B2, the binding result is on record as “binds”.

For the molecule B18, the binding result was “binds”.

Consider B3, for which the binding result is “binds”.

The target of a further assay is T1, human PD-L1 expressed on HEK293A cells. In words: FACS on HEK293A/human PD-L1 cells, serially diluted antibody (protocol of Example 4).
For the molecule B5, the binding result is given as “binds”.

Consider B6, for which the binding result is “binds”.

On to B7, for which the binding result was “binds”.

Take B9: the binding result was “binds”.

Regarding B10, the binding result was “binds”.

In the case of B11, the binding result was “binds”.

As for B12, the binding result is recorded as “binds”.

Regarding B13, the binding result is listed as “binds”.

Take B14: the binding result is given as “binds”.

Turning to B15, the binding result is “binds”.

Take B17: the binding result is given as “binds”.

Another assay deals with T5, human PD-L1 (ECD)-his (human, UniProt Q9NZQ7 19-238).
T5 construct: Bought protein; it is not tied to the bought construct by a sentence of its own; also called recombinant human PD-L1(ECD)-his; Cat #:10084-H08H, Sino Biological; not shown: His tag
T5 sequence (Q9NZQ7 19-238): as the sequence (Q9NZQ7 other isoform, or with tags, fused parts or gaps) above, with T33A, S34A, N62S, Q68R, R82Q, L173F, A185T, I192T, L215H counted along it
In words: SPR (BIAcore 8K), human PD-L1 (ECD)-his coupled to CM5 chip, antibody injected, 1:1 Langmuir model. How it is done: as §2
Turning to B18, the Kd came out at 0.518 nM.

With B8, the Kd is 0.307 nM.

In the case of B16, binding was characterised by a dissociation constant (Kd) of 0.433 nM.
